We go through 61 substances from patent publication US10227388B2, “Peptides and combination of peptides for use in immunotherapy against non-small cell lung cancer and other cancers” (immatics biotechnologies GmbH, priority 2015, dated 2019).

The target in the assay is HLA-A*02:01 (Homo sapiens, UniProt P04439, D140Y/D185E/D98H/E176V/E277Q/G131W/G231S/I119V/I121R/I166T/I218V/L300P/L318F/N151K/N90K/P208A/P217A/Q86G/Q94H/R138H/R169H/T345S). Put plainly: MHC binding assay (UV-ligand exchange, ELISA, peptide exchange yield). Conditions: binding of HLA-class I restricted peptides to HLA-A*02:01. A digest of the protocol:
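Exchange yield was quantified as stabilized β2m-containing complex: monomers diluted 100-fold bound to streptavidin-coated wells, probed with HRP-conjugated anti-β2m, read at 450 nm after TMB. Complexes had been generated by UV cleavage of a photolabile ligand and replacement with the candidate peptide.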

Regarding “144 (YIMEPSIFNTL; listed as Homo sapiens) [compound 144]”, the “Peptide exchange (MHC class I binding score, peptide exchange yield)” value (“Peptide exchange” for short) is given as “″+++″ (≥50% = +++)”.
Take “146 (SLATAGDGLIEL; listed as Homo sapiens) [compound 146]”: the “Peptide exchange” value is “″++″ (≥20% = ++)”.
The entry for “551 (KLYESLLPFA; listed as Homo sapiens) [compound 551]” is “″+++″ (≥50% = +++)”.
For “227 (ALMNTLLYL; listed as Homo sapiens) [compound 227]” the value was “″++″ (≥20% = ++)”; for “90 (TLLQIIETV; listed as Homo sapiens) [compound 90]”, “″+++″ (≥50% = +++)”; for “465 (QLCDLNAEL; listed as Homo sapiens) [compound 465]”, “″+++″ (≥50% = +++)”.
Turning to “234 (ALMEDTGRQML; listed as Homo sapiens) [compound 234]”, the “Peptide exchange” value is on record as “″++″ (≥20% = ++)”.
The entry for “275 (YLVYILNEL; listed as Homo sapiens) [compound 275]” is “″++″ (≥20% = ++)”.
For “285 (QLLHVGVTV; listed as Homo sapiens) [compound 285]” the value was “″+++″ (≥50% = +++)”.
For “497 (GLLEKLTAI; listed as Homo sapiens) [compound 497]” the value was “″+++″ (≥50% = +++)”.
As for “306 (ALVNVQIPL; listed as Homo sapiens) [compound 306]”, the “Peptide exchange” value is “″+++″ (≥50% = +++)”.
The entry for “369 (GLFPEHLIDV; listed as Homo sapiens) [compound 369]” is “″+++″ (≥50% = +++)”; for “372 (TMLLNIPLV; listed as Homo sapiens) [compound 372]” it is “″++″ (≥20% = ++)”; for “392 (ALLHPQGFEV; listed as Homo sapiens) [compound 392]” it is “″++″ (≥20% = ++)”.
For “471 (YLYNNMIAKI; listed as Homo sapiens) [compound 471]” the value was “″+++″ (≥50% = +++)”; for “457 (SLLPGNLVEKV; listed as Homo sapiens) [compound 457]”, “″+++″ (≥50% = +++)”; for “258 (ELAERVPAI; listed as Homo sapiens) [compound 258]”, “″++″ (≥20% = ++)”.
The entry for “564 (TVTNAVVTV; listed as Homo sapiens) [compound 564]” is “″+++″ (≥50% = +++)”; for “191 (LLQEGQALEYV; listed as Homo sapiens) [compound 191]” it is “″++″ (≥20% = ++)”.
For “248 (FLFPNQYVDV; listed as Homo sapiens) [compound 248]”, the “Peptide exchange” value is given as “″+++″ (≥50% = +++)”.
The entry for “442 (GLLGGGGVLGV; listed as Homo sapiens) [compound 442]” is “″+++″ (≥50% = +++)”; for “604 (SILDRDDIFV; listed as Homo sapiens) [compound 604]” it is “″+++″ (≥50% = +++)”.
For “361 (ALYELEGTTV; listed as Homo sapiens) [compound 361]” the value was “″+++″ (≥50% = +++)”; for “553 (SLLNQDLHWSL; listed as Homo sapiens) [compound 553]”, “″++++″ (≥75% = ++++)”.
For “286 (YLFPGIPEL; listed as Homo sapiens) [compound 286]” the value was “″+++″ (≥50% = +++)”.
For “334 (TLTKVLVAL; listed as Homo sapiens) [compound 334]”, the “Peptide exchange” value was “″+++″ (≥50% = +++)”.
“51 (LLPDLEFYV; listed as Homo sapiens) [compound 51]”: the “Peptide exchange” value is “″++++″ (≥75% = ++++)”.
For “132 (LLVEQPPLAGV; listed as Homo sapiens) [compound 132]” the value was “″+++″ (≥50% = +++)”.
For “398 (KLLEEDGTIITL; listed as Homo sapiens) [compound 398]” the value was “″++″ (≥20% = ++)”.
For “529 (LLADELITV; listed as Homo sapiens) [compound 529]” the value was “″+++″ (≥50% = +++)”; for “29 (KMLGIPISNILMV; listed as Homo sapiens) [compound 29]”, “″+++″ (≥50% = +++)”; for “242 (AIAYILQGV; listed as Homo sapiens) [compound 242]”, “″++″ (≥20% = ++)”.
For the substance “605 (KLYEAVPQL; listed as Homo sapiens) [compound 605]”, the “Peptide exchange” value was “″+++″ (≥50% = +++)”.
The entry for “256 (FLPPEHTIVYI; listed as Homo sapiens) [compound 256]” is “″+++″ (≥50% = +++)”; for “356 (KLLGKLPEL; listed as Homo sapiens) [compound 356]” it is “″+++″ (≥50% = +++)”.
For “504 (GLSDGNPSL; listed as Homo sapiens) [compound 504]” the value was “″++″ (≥20% = ++)”.
As to “124 (ALYETELADA; listed as Homo sapiens) [compound 124]”, the “Peptide exchange” value is reported as “″++″ (≥20% = ++)”.
With “447 (QLVPALAKV; listed as Homo sapiens) [compound 447]”, the “Peptide exchange” value was “″++″ (≥20% = ++)”.
“480 (ALLEDSCHYL; listed as Homo sapiens) [compound 480]”: the “Peptide exchange” value was “″+++″ (≥50% = +++)”.
For “69 (FQLDPSSGVLVTV; listed as Homo sapiens) [compound 69]” the value was “″+++″ (≥50% = +++)”.
Regarding “243 (LLLNELPSV; listed as Homo sapiens) [compound 243]”, the “Peptide exchange” value is “″+++″ (≥50% = +++)”.
The entry for “308 (SQYSGQLHEV; listed as Homo sapiens) [compound 308]” is “″+++″ (≥50% = +++)”; for “137 (TLVLTLPTV; listed as Homo sapiens) [compound 137]” it is “″++++″ (≥75% = ++++)”; for “453 (KLLEATSAV; listed as Homo sapiens) [compound 453]” it is “″++″ (≥20% = ++)”.
The entry for “272 (ALGNTVPAV; listed as Homo sapiens) [compound 272]” is “″+++″ (≥50% = +++)”.
The entry for “314 (ALIAEGIALV; listed as Homo sapiens) [compound 314]” is “″+++″ (≥50% = +++)”; for “6 (VLVSDGVHSV; listed as Homo sapiens) [compound 6]” it is “″+++″ (≥50% = +++)”; for “510 (KLYSVVSQL; listed as Homo sapiens) [compound 510]” it is “″++″ (≥20% = ++)”.
As for “68 (SLMELPRGLFL; listed as Homo sapiens) [compound 68]”, the “Peptide exchange” value is reported as “″++++″ (≥75% = ++++)”.
As to “287 (FLNEFFLNV; listed as Homo sapiens) [compound 287]”, the “Peptide exchange” value is reported as “″+++″ (≥50% = +++)”.
In the case of “577 (VMFEDGVLMRL; listed as Homo sapiens) [compound 577]”, the “Peptide exchange” value was “″+++″ (≥50% = +++)”.
For “389 (LLADVTHLL; listed as Homo sapiens) [compound 389]” the value was “″++″ (≥20% = ++)”; for “59 (IMEDIILTL; listed as Homo sapiens) [compound 59]”, “″+++″ (≥50% = +++)”; for “27 (ILADIVISA; listed as Homo sapiens) [compound 27]”, “″+++″ (≥50% = +++)”.
The entry for “33 (VLLSLLEKV; listed as Homo sapiens) [compound 33]” is “″++″ (≥20% = ++)”; for “517 (LLMPIPEGLTL; listed as Homo sapiens) [compound 517]” it is “″+++″ (≥50% = +++)”; for “521 (MLLTKLPTI; listed as Homo sapiens) [compound 521]” it is “″+++″ (≥50% = +++)”.
For “347 (SLFKHDPAAWEA; listed as Homo sapiens) [compound 347]” the value was “″++++″ (≥75% = ++++)”; for “463 (SLVESHLSDQLTL; listed as Homo sapiens) [compound 463]”, “″+++″ (≥50% = +++)”.
Turning to “17 (GLLPGDRLVSV; listed as Homo sapiens) [compound 17]”, the “Peptide exchange” value was “″+++″ (≥50% = +++)”.
For “509 (FLFDTKPLIV; listed as Homo sapiens) [compound 509]” the value was “″+++″ (≥50% = +++)”.
